Columns and labels:
[1] = target: arylsulfatase from Enterococcus faecium (EfAS), wild type (Enterococcus faecium); assay: crystal structure; vapor diffusion at 17°C, 0.1 M sodium cacodylate pH 6.4, 8% PEG3350, 0.2 M MnCl2; space group P42(1)2, two molecules in the asymmetric unit, tetramer through symmetry-related operations
EfAS = target: T1, EfAS (Enterococcus faecium, UniProt I3U6E8); assay: p-nitrophenol colorimetric assay at […] nm, Lineweaver-Burk; type: biochemical; conditions: read-out: Kinetic parameters / Km (×10^-3 M); 50 mM sodium acetate pH 4.5, 1 mM MnCl2, 37 °C
T1 construct: gene HMPREF0351_12962; synthetic codon-optimised gene in pSMT3, E. coli BL21(DE3); His6-SUMO tag removed by Ulp1; homotetramer, 323 kDa by SEC; residues 9-488 modelled; C61 partly oxidised to formylglycine
T1 sequence (I3U6E8 1-491 limits assumed): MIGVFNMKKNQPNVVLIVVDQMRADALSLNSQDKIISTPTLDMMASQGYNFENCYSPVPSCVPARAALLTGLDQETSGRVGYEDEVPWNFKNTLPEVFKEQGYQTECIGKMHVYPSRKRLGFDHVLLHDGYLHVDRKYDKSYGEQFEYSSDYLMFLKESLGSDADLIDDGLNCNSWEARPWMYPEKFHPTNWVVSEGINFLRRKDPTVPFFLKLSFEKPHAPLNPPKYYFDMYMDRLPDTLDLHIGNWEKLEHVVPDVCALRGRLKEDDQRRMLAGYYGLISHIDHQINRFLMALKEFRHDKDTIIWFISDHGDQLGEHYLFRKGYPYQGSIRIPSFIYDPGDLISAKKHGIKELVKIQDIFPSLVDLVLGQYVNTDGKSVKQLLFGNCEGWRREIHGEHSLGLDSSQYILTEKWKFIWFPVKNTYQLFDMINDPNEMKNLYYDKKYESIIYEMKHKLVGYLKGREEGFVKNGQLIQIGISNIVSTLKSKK

purified protein [2] = substrate: O=[N+]([O-])c1ccc(OS(=O)(=O)O)cc1; assay: purified protein; type: biochemical, Enterococcus faecium; conditions: 50 mM sodium acetate pH 4.5, 1 mM MnCl2, 37 °C
purified protein [3] = substrate: O=[N+]([O-])c1ccc(OP(=O)(O)O)cc1; assay: purified protein; type: biochemical, Enterococcus faecium; conditions: 50 mM sodium acetate pH 4.5, 1 mM MnCl2, 37 °C

arylsulfatase from Enterococcus faecium (EfAS), wild type (enzyme)
stoichiometry N [1]: 4

O=[N+]([O-])c1ccc(OP(=O)(O)c2ccccc2)cc1 [p-nitrophenyl phenylphosphonate]
Km (EfAS): 1410 µM

B1: EfAS (Enterococcus faecium DO) (protein)
chain: MIGVFNMKKNQPNVVLIVVDQMRADALSLNSQDKIISTPTLDMMASQGYNFENCYSPVPSCVPARAALLTGLDQETSGRVGYEDEVPWNFKNTLPEVFKEQGYQTECIGKMHVYPSRKRLGFDHVLLHDGYLHVDRKYDKSYGEQFEYSSDYLMFLKESLGSDADLIDDGLNCNSWEARPWMYPEKFHPTNWVVSEGINFLRRKDPTVPFFLKLSFEKPHAPLNPPKYYFDMYMDRLPDTLDLHIGNWEKLEHVVPDVCALRGRLKEDDQRRMLAGYYGLISHIDHQINRFLMALKEFRHDKDTIIWFISDHGDQLGEHYLFRKGYPYQGSIRIPSFIYDPGDLISAKKHGIKELVKIQDIFPSLVDLVLGQYVNTDGKSVKQLLFGNCEGWRREIHGEHSLGLDSSQYILTEKWKFIWFPVKNTYQLFDMINDPNEMKNLYYDKKYESIIYEMKHKLVGYLKGREEGFVKNGQLIQIGISNIVSTLKSKK
notes: synthetic codon-optimised gene in pSMT3, E. coli BL21(DE3); His6-SUMO tag removed by Ulp1; homotetramer, 323 kDa by SEC; residues 9-488 modelled; C61 partly oxidised to formylglycine
Km (purified protein [2]): 677 µM | kcat (purified protein [2]): 0.0831 s⁻¹ | kcat/Km (purified protein [2]): 123 M⁻¹ s⁻¹ | Km (purified protein [3]): 1285 µM | kcat (purified protein [3]): 0.0318 s⁻¹ | kcat/Km (purified protein [3]): 24.8 M⁻¹ s⁻¹

— article PMC12421950, “Structural insights into manganese-dependent arylsulfatase from Enterococcus faecium and its catalytic promiscuity” (mBio, 2025)
